Earlier results in article PMC8773166.

Molecular target: calmodulin (UniProt P0DP23)

Kd: 200 nM
Substance: NCX1 XIP peptide XIP (from UniProt P32418)
